According to patent publication US20200113997A1 (published 2020):
Residue numbers refer to the chain shown, from its start.

B1: DH270.2 (antibody, V domains shown)
VH: QVQLVQSGAEMKKPGASVRVSCKASGYTFTDYYIHWVRQAPGQGPEWMGWINPSTGRTNSPQKFQGRVIMTRDTSISTAYMDLNRLTSDDTAMYYCTTGGWIGLYSDTSGYPNFDYWGQGTLVTVSS
VL: QSALTQPASVSGSPGQSITISCTGTNYDVGSYNLVSWYQQHPGKVPKYIIYEVNKRPSGVSNRFSGSKSGNTASLTISGLQAEDEADYYCCSYAGSSIIFFGGGTKLTVI
B2: DH270.3 (antibody, V domains shown)
VH: QVQLVQSGAEMKNPGASVKVSCAASGYTFTDFYIHWVRLAPGQGLEWMGWMNPKTGRTNNAQNFQGRVIMTRDTSIGTAYMELRRLTSDDTAVYYCVTGGWISPYYDSSYYPNFDHWGQGTLVTVSS
VL: QSALTQPASVSGSPGQSITISCTGTSYDVGKFDLVSWYQQHPGKAPKYMIYEVNKWPSGVSHRFSGSKSGNTASLTISGLQAEDEADYYCCSFGGSATVVCGGGTKVTVL
B3: DH270.5 (antibody, V domains shown)
VH: B2 VH with M11V, A24P, M48L, N60Q, A61G, R85S, G100A, P104D
VL: B2 VL with Q1L, S2P, A3V, S26I, Q40H, M49L, N54K, A82V, T98A
B4: DH270.4 (antibody, V domains shown)
VH: B2 VH with Q1E, T28G, Q43H, E46Q, N63D, M70L, V123I
VL: B2 VL with G30A, Y38F

Target: T1, Man9-V3 glycopeptide (cyclic)
T1 peptide: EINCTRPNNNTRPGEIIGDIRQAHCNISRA
Assay: BLI

Q: For B1, which Kd is on record?
A: The Kd was 4770 nM.

Q: Which Kd does the source give for B2 here?
A: The Kd was 195 nM.

Q: With B3 as the binder, how does the Kd read?
A: Its Kd is 281 nM.

Q: B4 was tested. Which Kd did it give?
A: The Kd was 346 nM.
